Results: patent US20160237160A1, “ANTI-TWEAKR ANTIBODIES AND USES THEREOF” (BAYER PHARMA AKTIENGESELLSCHAFT, priority 2013, published 2016)

Target: TWEAKR (TNFRSF12A, FN14), human, on tumor cell lines (human) (UniProt Q9NP84)
Assay: cell-based or functional assay

Substance: recombinant human TWEAK (R&D, #1090-TW-025/CF) (ligand)
- % Inhibition of proliferation, 786-O cells, 96h, 100 ng/ml: 12%
- % Inhibition of proliferation, A253 cells, 72h, 300 ng/ml: > 100%
- % Inhibition of proliferation, HT-29 cells, 24h, 300 ng/ml: 98%
- % Inhibition of proliferation, LOVO cells, 72h, 100 ng/ml: 53%
- % Inhibition of proliferation, NCI-H1975 cells, 72h, 100 ng/ml: 56%
- % Inhibition of proliferation, SW480 cells, 72h, 100 ng/ml: 0%
- Fold induction of Caspase 3/7, 786-O cells, 300 ng/ml: 1.45 fold
- Fold induction of Caspase 3/7, A253 cells, 300 ng/ml: 1.53 fold
- Fold induction of Caspase 3/7, HT-29 cells, 300 ng/ml: 2.31 fold
- Fold induction of Caspase 3/7, NCI-H322 cells, 100 ng/ml: 1.39 fold
- Fold induction of Caspase 3/7, WiDr cells, 300 ng/ml: 1.22 fold
